Measured values taken from article PMC4286497.

Test system: Nc1ncnc2c1ncn2[C@@H]1O[C@H](COP(=O)(O)OP(=O)(O)OP(=O)(O)O)[C@@H](O)[C@H]1O
Assay: purified protein
[1] = saturating taxol-stabilized MTs, no ATPγS, pH 7.2, 2 mM MgCl2

Row | Substance | Km [1] [µM] | kcat [1] [s⁻¹] | Km (pH 7.2) [µM]
1 | WT dynein (GST-Dyn1_331kD) (Saccharomyces cerevisiae S288C) | 46 ± 5 | 17.0 ± 0.5 | 
2 | WT dynein (GST-Dyn1_331kD) (Saccharomyces cerevisiae S288C; K2424A) |  |  | 38 ± 3
